Experimental data as given in US20180318419A1 (YALE UNIVERSITY, published 2018).
Residue numbers refer to the chain shown, from its start. Names and notes keep the numbering of the source.

T1: human leucine rich repeat containing 4C (LRRC4C) (human, UniProt Q9HCJ2 45-640)
T1 construct: also called human LRRC4; NGL1
T1 sequence: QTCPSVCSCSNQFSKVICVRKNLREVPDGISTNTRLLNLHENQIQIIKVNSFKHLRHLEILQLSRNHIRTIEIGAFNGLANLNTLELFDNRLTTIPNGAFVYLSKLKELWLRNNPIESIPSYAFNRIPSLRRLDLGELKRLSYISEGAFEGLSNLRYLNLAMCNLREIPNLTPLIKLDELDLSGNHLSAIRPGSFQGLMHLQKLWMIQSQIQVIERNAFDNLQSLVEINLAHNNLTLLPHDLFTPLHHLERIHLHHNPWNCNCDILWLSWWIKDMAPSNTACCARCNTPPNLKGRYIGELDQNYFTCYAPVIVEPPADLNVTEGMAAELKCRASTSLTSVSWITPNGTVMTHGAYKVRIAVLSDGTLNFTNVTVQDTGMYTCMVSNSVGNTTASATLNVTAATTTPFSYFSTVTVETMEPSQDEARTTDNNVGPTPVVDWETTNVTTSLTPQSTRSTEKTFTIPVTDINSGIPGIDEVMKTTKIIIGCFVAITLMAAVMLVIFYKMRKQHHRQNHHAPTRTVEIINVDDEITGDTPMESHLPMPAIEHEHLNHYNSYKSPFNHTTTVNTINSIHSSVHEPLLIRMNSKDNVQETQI

T2: human myelin-associated glycoprotein (MAG) (human, UniProt P20916 20-626)
T2 construct: Expressed on transfected HEK293T cells from the human membrane gene library; also called Siglec 4; human MAG
T2 sequence: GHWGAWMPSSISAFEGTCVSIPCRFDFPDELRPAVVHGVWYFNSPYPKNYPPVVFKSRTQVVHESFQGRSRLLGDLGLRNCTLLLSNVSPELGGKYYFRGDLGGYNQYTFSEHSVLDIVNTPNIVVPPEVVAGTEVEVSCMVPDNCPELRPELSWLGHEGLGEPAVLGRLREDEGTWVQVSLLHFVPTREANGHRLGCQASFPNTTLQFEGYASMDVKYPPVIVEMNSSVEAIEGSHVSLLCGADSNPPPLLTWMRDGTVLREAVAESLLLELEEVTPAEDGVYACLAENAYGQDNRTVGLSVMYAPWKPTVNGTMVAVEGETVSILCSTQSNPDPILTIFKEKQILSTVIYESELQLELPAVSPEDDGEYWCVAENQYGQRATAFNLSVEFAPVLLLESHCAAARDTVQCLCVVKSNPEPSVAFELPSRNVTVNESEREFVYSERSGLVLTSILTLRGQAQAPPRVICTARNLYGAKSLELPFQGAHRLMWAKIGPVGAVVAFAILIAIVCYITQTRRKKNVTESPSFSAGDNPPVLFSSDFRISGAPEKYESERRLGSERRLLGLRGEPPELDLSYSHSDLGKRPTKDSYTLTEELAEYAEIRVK

T3: MAG (species not stated) (Homo sapiens (Human), UniProt P20916 20-626, limits assumed)
T3 construct: also called myelin-associated glycoprotein
T3 sequence: T2 sequence

T4: LRRC4C (species not stated) (Homo sapiens (Human), UniProt Q9HCJ2 45-640, limits assumed)
T4 construct: also called leucine rich repeat containing 4C
T4 sequence: T1 sequence

B1: human Siglec 15-Fc fusion protein (Fc fusion)
chain: FVRTKIDTTENLLNTEVHSSPAQRWSMQVPPEVSAEAGDAAVLPCTFTHPHRHYDGPLTAIWRAGEPYAGPQVFRCAAARGSELCQTALSLHGRFRLLGNPRRNDLSLRVERLALADDRRYFCRVEFAGDVHDRYESRHGVRLHVTAAPRIVNISVLPSPAHAFRALCTAEGEPPPALAWSGPALGNSLAAVRSPREGHGHLVTAELPALTHDGRYTCTAANSLGRSEASVYLFRFHGASGAST
notes: not shown: mouse or human Fc tag
B2: Siglec 15 R143A mutant (other)
chain: B1 chain with R124A
notes: also called R143A mutation

Assays:
[1] = biological target: T1, human leucine rich repeat containing 4C …; assay: genome-scale human receptor array; transfected HEK293T cells, anti-Fc FMAT blue secondary antibody
Excerpt: (§1) To identify the ligand for Siglec 15, a Siglec 15-Fc fusion protein was generated by fusing the extracellular domain of each molecule with a mouse or human Fc tag (Dong H, et al., Nat Med. 1999; 5(12): 1365-9) and screened in the newly established genome scale human receptor array (Yao, S et al., Immunity 2011, 34(5):729-40). Briefly, the complete human membrane gene library containing over 6,200 genes was collected, maintained, and diluted by OPTI-MEM media and placed individually into four 1,536-well plates at 40 ng/well, through a robotic system. Lipofectamine 2000 was added to each well and mixed with plasmids for 30 minutes. Two thousand HEK293T cells were added subsequently to each well to perform transient transfection. Eight hours after transfection, 10 ng of human Siglec 15-Fc and anti-Fc FMAT blue secondary antibody were added to each well. The plates were read 24 hours after transfection using the Applied Biosystems 8200 cellular detection system and analyzed using the CDS 8200 software. Human Fc Receptor genes served as internal positive controls for the assay.

[2] = biological target: T2, human myelin-associated glycoprotein …; assay: as above
Excerpt: as §1

MAG (species not stated) = biological target: T3, MAG (species not stated); assay: binding of Siglec 15 point mutant, FIG. 7
[3] = biological target: T4, LRRC4C (species not stated); assay: binding of Siglec 15 point mutant, FIG. 7

| binding result [1] | binding result [2] | binding result (MAG (species not stated)) | binding result [3] | Binder |
| --- | --- | --- | --- | --- |
| binds | binds | – | – | B1 |
| – | – | no binding | no binding | B2 |
